Data as given in US20060234944A1, “Beta-secretase inhibitors and methods of use” (Oklahoma Medical Reseach Foundation, priority 2001, published 2006).
Each block holds one binder with its values, some of them ahead of it. Where no end group is shown, it is not given here. [ ]: non-standard residue; d: D form. FAM = 5-(and 6-)carboxyfluorescein; Ahx = NCCCCCC(=O)O

Biological target: memapsin 2 (spontaneously activated promemapsin 2-T1; amino acids 43-456 and 45-456 of SEQ ID NO: 8) (human) (UniProt P56817)
Test: kinetic inhibition experiment (procedure of Ermolieff et al.)

Chain of memapsin 2 (spontaneously activated promemapsin 2-T1; amino acids 43-456 and 45-456 of SEQ ID NO: 8) (human) (P56817 41-454): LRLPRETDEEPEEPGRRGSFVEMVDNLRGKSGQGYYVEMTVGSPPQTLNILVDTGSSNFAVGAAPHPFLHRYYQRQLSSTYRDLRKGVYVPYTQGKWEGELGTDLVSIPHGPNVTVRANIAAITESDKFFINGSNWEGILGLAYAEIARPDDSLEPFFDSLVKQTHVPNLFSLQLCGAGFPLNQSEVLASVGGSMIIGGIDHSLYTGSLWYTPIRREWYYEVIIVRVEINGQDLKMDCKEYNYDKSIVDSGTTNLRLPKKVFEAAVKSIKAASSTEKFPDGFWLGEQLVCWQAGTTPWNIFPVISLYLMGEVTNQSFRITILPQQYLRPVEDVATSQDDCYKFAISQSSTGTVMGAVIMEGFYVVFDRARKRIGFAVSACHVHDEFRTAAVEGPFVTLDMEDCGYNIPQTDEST

Ki: 35 nM
Binder: ELDLAVEFGG[dR][dR][dR][dR][dR][dR][dR][dR][dR] (also: hydroxyethylene isostere between Leu4 and Ala5) [CPI-3: (ELDL*AVEF)-GG-(…)]

Ki apparent: 58 nM
B1: CPI-2: FAM-Ahx-(ELDL*AVEF)-GG-(…) (peptide)
peptide: {FAM-Ahx}-ELDLAVEFGG[dR][dR][dR][dR][dR][dR][dR][dR][dR]
modifications: numbers in words are those of the source; also: hydroxyethylene isostere between Leu5 and Ala6
